Experimental data taken from paper PMC12100659.

Experiments:
α-synuclein (human) [1] = target: α-synuclein (human) (UniProt P37840)
α-synuclein (human) [2] = target: α-synuclein (human) (UniProt P37840); remark: listed apart in the source
α-synuclein (human) [3] = target: α-synuclein (human) (UniProt P37840); remark: listed apart in the source
α-synuclein (human) [4] = target: α-synuclein (human) (UniProt P37840); remark: listed apart in the source

“DNAJB6b (from UniProt O75190-2 1-241) (natural protein)” was tested, and the apparent solubility of α-syn (free monomer in supernatant by HPLC-MS) with 7.8 to 62.5 nM JB6, pH 5.5 (0.8 μM for α-syn alone; 125 nM JB6 not at equilibrium, 16 μM) (α-synuclein (human) [1]) was 7.7 μM, the apparent solubility of α-syn (free monomer by 1D 1H NMR at about 300 h) with 250 nM JB6, pH 5.5 (α-synuclein (human) [2]) was 0.47 μM and the apparent solubility of α-syn (free monomer in supernatant by HPLC-MS) with 0.12 and 2 μM JB6, pH 4.5 (α-synuclein (human) [3]) was 2.3 μM. It also gave a half-time of loss of free α-syn monomer by 1D 1H NMR, 20 μM α-syn with 250 nM JB6 (4.9 h without JB6), pH 5.5, 37 °C (α-synuclein (human) [4]) of 35 h.
